Target: human gp130-Fc (UniProt P40189)
Assay: flow cytometry on yeast-displayed IL-11
Settings: 100 nM IL-11R added, read off a plot
[1] = 100 nM gp130-Fc, parent: est. 35000
[2] = 1000 nM gp130-Fc, parent: est. 40000

Chain of human gp130-Fc (P40189 whole entry, looked up, tested part not stated): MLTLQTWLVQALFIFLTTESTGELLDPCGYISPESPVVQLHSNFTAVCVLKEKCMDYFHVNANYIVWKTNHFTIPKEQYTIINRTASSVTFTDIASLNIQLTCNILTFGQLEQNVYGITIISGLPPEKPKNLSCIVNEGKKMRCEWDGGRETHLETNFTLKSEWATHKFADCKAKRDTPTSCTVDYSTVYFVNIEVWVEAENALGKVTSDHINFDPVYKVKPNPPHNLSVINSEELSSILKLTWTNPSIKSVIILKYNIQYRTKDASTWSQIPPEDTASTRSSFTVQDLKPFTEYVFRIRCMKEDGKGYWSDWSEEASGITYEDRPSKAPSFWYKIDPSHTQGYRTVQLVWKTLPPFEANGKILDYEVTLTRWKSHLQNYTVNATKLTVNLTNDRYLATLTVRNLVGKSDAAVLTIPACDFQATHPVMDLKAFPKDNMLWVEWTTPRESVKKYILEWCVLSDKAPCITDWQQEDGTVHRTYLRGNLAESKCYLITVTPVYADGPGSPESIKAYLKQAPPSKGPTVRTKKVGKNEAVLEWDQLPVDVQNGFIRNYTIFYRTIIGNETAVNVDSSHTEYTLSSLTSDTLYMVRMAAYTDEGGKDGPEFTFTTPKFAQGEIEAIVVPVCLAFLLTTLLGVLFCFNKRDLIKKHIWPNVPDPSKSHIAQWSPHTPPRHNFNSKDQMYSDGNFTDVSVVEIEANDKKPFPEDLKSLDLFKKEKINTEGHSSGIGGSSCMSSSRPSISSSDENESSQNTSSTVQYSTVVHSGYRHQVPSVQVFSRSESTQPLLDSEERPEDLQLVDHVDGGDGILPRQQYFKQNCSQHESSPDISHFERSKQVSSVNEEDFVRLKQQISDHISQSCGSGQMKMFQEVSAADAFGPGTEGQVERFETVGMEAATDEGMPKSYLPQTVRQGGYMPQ

| response (Normalized Fluorescence) [1] | response (Normalized Fluorescence) [2] | response (Normalized Fluorescence) (10 nM gp130-Fc, parent: est. 28000) | Substance |
| --- | --- | --- | --- |
| 1900 | 4500 | – | yeast-displayed IL-11 GIPR precomplexed with soluble human IL-11R (from UniProt Q14626) L24R; W147A |
| 17000 | 26000 | 4900 | yeast-displayed IL-11 GIPR precomplexed with soluble human IL-11R (from UniProt Q14626) W147A |

From publication PMC10658506
